# Assay: yeast display, Sf9 membrane polyspecificity reagent, FACS + sequencing; frameworks hold sequencing errors
# In short: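 Polyreactivity labels are assigned by the sorting gate from which each nanobody was recovered. The gates were low and high (top ~1%), set on anti-HA fluorescence for expression and streptavidin fluorescence for reagent binding. Before sorting, galactose-induced (36–48 hours) yeast display cells were stained for 1 hour at 4 °C with 10% biotinylated, detergent-solubilized Sf9 membrane reagent.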
row,Sequence,polyreactivity (PSR sort gate)
1,QVQLVESGGGLVQAGGSLRLSCAASGSIFGSNAMGWYRQALGKERELVAAISDSTGSTYYADSVKGRFTISRDNAKNTVYLQMNSLKPEDTAVYYCDARTYYYRWHIYDYWGQGSQVTVSS,low polyreactivity
2,QVQLVESGGGLVQAGGSLRLSCAASGSIFGSNGMGWSRQAPGKERELVAAISSGDSTNYADSVKGRFTISRDNAKNTVYLQMNSLKPEDTAVYSCERWGLGDYWGQGTQVTVSS,low polyreactivity
3,QVQLVESGGGLVQAGGSLRLSCAASGSIFGSYAMGWYRQAPGKERELVAAISYRGGRTYYADSVKGRFTISRDNAKNTVYLQMNSLKPEDTAVYYCNARARNSPPYDYWGQGTQVTVSS,high polyreactivity
4,QVQLVESGGGLVQAGGSLRLSCAASGSIFGSYAMGWYTQAPGKERELVAAITRAGSTNYADSVKGRFTISRDNAKNTVYLQINSLKPEDTAVFYCAVRPGFGRSLWYGYWGQGTQVTVSS,low polyreactivity
5,QVQLVESGGGLVQAGGSLRLSCAASGSIFGTNAMGWYRQAPGKERELLAAISLSTGSTYYADSVKGRITISRDYAKNTVYLQMNSLKPEDTAVYYCAVRHRYTRAYWGRDYWGQGTQVTVSS,low polyreactivity
6,QVQLVESGGGLVQAGGSLRLSCAASGSIFGTNAMGWYRQAPGKERELVAAIDGGSTTYYADSVKGRFTISRDNAKNTVYLQMNSLKPEDTAVYYCAADGTRYLNDEGYAGYEYWGQGTQVTVSS,low polyreactivity
7,QVQLVESGGGLVQAGGSLRLSCAASGSIFGTNAMGWYRQAPGKERELVAAISFSGGDTYYADSVKGRFTISRDNAKKTVYLQMNRLKPEDTAVYYCAAEVPDTDAYGYWGQGTQVTVSS,low polyreactivity
8,QVQLVESGGGLVQAGGSLRLSCAASGSIFGTYAMGWYRQALGKERELVASIRFNGRTFYADSVKGRFTISRDNAKNTVYLQMNSLKPEDTAVYYCAAQTWYGFPNYYWGQGTQVTVSS,high polyreactivity
9,QVQLVESGGGLVQAGGSLRLSCAASGSIFGTYAMGWYRQAPGKEREFVADISGIGTSTYYADSVKGRFTISRDNAKNTVYLQMNSLKPEDTAVYYCAACYPPLRGYYYWGQGTQVTVSS,low polyreactivity
10,QVQLVESGGGLVQAGGSLRLSCAASGSIFGTYAMGWYRQAPGKERELVARISGGGSTYYADSVKGRFTISRDNAKNTVYLQMNSLKPEDTAVYYCNVRKWAYWSHAIIYNYWGQGTQVTVSS,high polyreactivity
11,QVQLVESGGGLVQAGGSLRLSCAASGSIFGVNAMGWYRQAPGKERELVAAISSSTGRTYYADSVKGRFTISRDNAKNTVYLQMNSLKPEDTAVYYCAADFTSYRRGWTYGYWGQGTQVTVSS,high polyreactivity
12,QVQLVESGGGLVQAGGSLRLSCAASGSIFGVNAMGWYRQAPGKERELVASITGGDSTNYADSVKGRFTISRDNAKNTVYLQMNSLKPEDTAGYYCAKDHYYRYEEGDYWGQGTQVTVSS,low polyreactivity
13,QVQLVESGGGLVQAGGSLRLSCAASGSIFGVYAMGWYRQAPGKERELVAAIDSGSSTDYADSVKGRFTISRDNAKNTVYLQMNSLKPEDTAVYYCYPLDLAPVDYWGQGTQVTVSS,low polyreactivity
14,QVQLVESGGGLVQAGGSLRLSCAASGSIFGWNAMGWYRQAPGKERELVAAISSGGSTYYADSVKGRFTISRDNAKNTVYLQMNSLKPQDTAVYYCNAFFQYYDYWGQGTQVTVSS,low polyreactivity
15,QVQLVESGGGLVQAGGSLRLSCAASGSIFGWYAMGWYRQAPGKERELVAAISWDGGDTYYADSVKGRFTISRDNAKNTVYLQMNSLKPEDTAVYYCAAELGYYDYGSYYSYDYWGQGTQVTVSS,high polyreactivity
16,QVQLVESGGGLVQAGGSLRLSCAASGSIFGWYGMGWYRQAPGKERELVAAINWGGTNTYYADSVKGRFTISRDNAKNTVYLQMISLKPEDTAVYSCNADIPRRPNRHYLYDYWGQATQVTVSS,low polyreactivity
17,QVQLVESGGGLVQAGGSLRLSCAASGSIFGWYVMGWYRQAPGKERELVAAISSGGSTNYADSVKGRFTISRDNAKNTVYLQMNSLKPEDTAVYYCAKRFRRTPYRNTYKPYDRYYWGQGTQVTVSS,high polyreactivity
18,QVQLVESGGGLVQAGGSLRLSCAASGSIFGYNAMGWYRQAPGKEREFVAAITSGGSTYYADSVKGRFTISRDNAKNTVYLQMNSLKPEDTAVYYCRRRNVDSTRRYDYWGQGTQVTVSS,high polyreactivity
19,QVQLVESGGGLVQAGGSLRLSCAASGSIFGYNAMGWYRQAPGKERELVAAINYNGGRTYYADSVKGRFTISRDNAKNTVYLQMNSLKPEDTAVYYCNKVYLRTSGRDYWGQGTQVTVSS,high polyreactivity
20,QVQLVESGGGLVQAGGSLRLSCAASGSIFGYNAMGWYRQAPGKERELVAAISSSGSSTYADSVKGRFTISRDNAKNTVYLQMNSLKPEDTAVYYCNKTTLLTVEYDYWGQGTQVTVSS,low polyreactivity
21,QVQLVESGGGLVQAGGSLRLSCAASGSIFGYNAMGWYRQAPGKERELVAAISYSGGRTYYADSVKGRFTISRDNAKHTVYFQKNRLKPEDTAVYYCAKYKVGYVPSGYRYDSWGQGTQVTVSS,high polyreactivity
22,QVQLVESGGGLVQAGGSLRLSCAASGSIFGYNTMGWYRQAPGKERELVAAISRGGSTNYADSVKGRFTISRDNAKNTVYLQMNSLKPEDTAVYYCAKRRWRQTTYSKGYDYWGQGTQVTVSS,high polyreactivity

row,Sequence,polyreactivity (PSR sort gate)
1,QVQLVESGGGLVQAGGSLRLSCAASGSIFGYNVMGWYRQAPGKERDLVAAITYSGGSTYYADSVKGRFTISRDNAKNTVYLQMNSLKPEDTAVYYCAKVTGRRFPAYGYDHWGQGTQVTVSS,high polyreactivity
2,QVQLVESGGGLVQAGGSLRLSCAASGSIFGYNVMGWYRQAPGKERELVAAISSSTGSTNYADSVKGRFTISRDNAKNTVYLQMNSLKPEDTAVYYCAVDPYVHWTTKLYDYWGQGSQVTVSS,low polyreactivity
3,QVQLVESGGGLVQAGGSLRLSCAASGSIFGYYALGWSRQAPGKERELVAVITWNTGNTYYADSVKGRFTISRDNAKNTVYLEMNSLKPEDTAVYYCAADQTGWGDTYDYWGQGTQVTVSS,low polyreactivity
4,QVQLVESGGGLVQAGGSLRLSCAASGSIFGYYAMGWYRQAPGKEREFVAAIRSSGGSTYYADSVKGRFTISRDNAKNTVYLQMNSLKPEDTAVYYCAAGGYPTFFKYGYWGQGTQVTVSS,high polyreactivity
5,QVQLVESGGGLVQAGGSLRLSCAASGSIFGYYAMGWYRQAPGKEREFVAAISVSGSRTYYADSVKGRFTISRDNAKNTVYLQMNSLKPEYTAVYYCAARVDYRHRYYYWGQGTLVTVSS,high polyreactivity
6,QVQLVESGGGLVQAGGSLRLSCAASGSIFGYYAMGWYRQAPGKERELVAAIRVSGGRTYYADSVKGRFTISRDNAKNTVYLQMNSLKPEDTAVYYCAKSLIPAYEYWGQGTQVTVSS,high polyreactivity
7,QVQLVESGGGLVQAGGSLRLSCAASGSIFGYYAMGWYRQAPGKERELVAAISGNGGNTYYADSVKGRFTISRDNAKNTVYLQMNSLKPEDTAVYYCNRAPGYRGGRYDYWGQGTQVTVSS,high polyreactivity
8,QVQLVESGGGLVQAGGSLRLSCAASGSIFGYYAMGWYRQAPGKERELVAAISRRGGSTYYADSVKGRFTISRDNAKNTVYLQMNSLKPEDTAVYYCAAVGGYASYFHLYYYWGQGTQVTVSS,high polyreactivity
9,QVQLVESGGGLVQAGGSLRLSCAASGSIFGYYAMGWYRQAPGKERELVAAISSSGASTYYADSVKGRFTISRDNAKNTVYLQMNSLKPEDTAVNYCNAARRYPTRGGYWGQGTQVTVSS,high polyreactivity
10,QVQLVESGGGLVQAGGSLRLSCAASGSIFGYYAMGWYRQAPGKERELVAAISWSDGSTYYADSVKGRFTISRDNAKNTVYLQMNMLKPEDTAVYYCAARFTPYITSDDGHYDYWGQGTQVTVSS,low polyreactivity
11,QVQLVESGGGLVQAGGSLRLSCAASGSIFGYYAMGWYRQAPGKERELVAAISWSGGSTYYADSVKGRFTISRDTAKNTVYLQMNSLKPEDTAVYYCAATSRGNDSQKYYYWGQGTQVTVSS,low polyreactivity
12,QVQLVESGGGLVQAGGSLRLSCAASGSIFGYYAMGWYRQAPGKERELVAAISYGGGRTYYADSVKGRFTISRDNAKNTVYLQMNSLKPEDTAVYYCAADVQSRYVGEGDYWGQGTQVTVSS,high polyreactivity
13,QVQLVESGGGLVQAGGSLRLSCAASGSIFGYYAMGWYRQAPGKERELVAAITRVSSTNYADSVKGRFTISRDNAKYTVYLHMNSLKPEDTAVYYCAARTLRYYQGNTWGDDYWGQGTQVTVSS,high polyreactivity
14,QVQLVESGGGLVQAGGSLRLSCAASGSIFGYYAMGWYRQAPGKERELVAAITSGGNTYYADSVKGRFTISRDNAKNTVYLQMNSLKPEDTAVSYCAAEFWYTYPYLVDYWGQGTQVTVSS,low polyreactivity
15,QVQLVESGGGLVQAGGSLRLSCAASGSIFGYYAMGWYRQAPGKERELVAAITTRGGRTYYADSVKGRFTISRDNAKNTVYFQINSLKPEDTAVYYCAARTGRGRYDYWGQGTQVTVSS,high polyreactivity
16,QVQLVESGGGLVQAGGSLRLSCAASGSIFGYYAMGWYRQAPGKERELVAAIWRGDNTYYADSVKGRFTISRDNAKNTVYLQMNSLKPEDTAVYYCAARYWSRRIFREGYWGQGTQVTVSS,low polyreactivity
17,QVQLVESGGGLVQAGGSLRLSCAASGSIFGYYAMGWYRQAPGKERELVAVIRRSSGSTYYADSVKGRITISRDNAKKTVYLQMNSLKPEDTAVFYCASRRYEPIIWHSMDYWGQGTQVTVSS,low polyreactivity
18,QVQLVESGGGLVQAGGSLRLSCAASGSIFGYYAMGWYRQAPGNERELVAAISFSAGNTYYADSVKGRFTISRDNAKNTVYLQMNSLKPEDSAVYYCAADPKYWTGWIWTSGYDYWGQGTQVTVSS,high polyreactivity
19,QVQLVESGGGLVQAGGSLRLSCAASGSIFGYYTMGLYRQAPGKERELVATINWSGGSTYYADSVKGRFTISRDNAKNTVYLQMNSLKPEDTAVYYCAKTRPYLRYWDSSTYDYWGQGTQVTVSS,high polyreactivity
20,QVQLVESGGGLVQAGGSLRLSCAASGSIFGYYTMGWYRQAPGKERELVARISSSGARTYYADSVKGRFTISRDNAKNTVYLQMNSLKPEDTAVYYCNAQFGYRTIYYISQYYEYGYWGQGTQVTVSS,high polyreactivity
21,QVQLVESGGGLVQAGGSLRLSCAASGSIFGYYVMGWYRQAPGKERELVAAISRSGGSTYYADSVKGRFTISRDNAKNTVYLQMNSLIPEATAVYYCAARGTAERDYWGQGNQVTVSS,high polyreactivity

# Source: the nanobody polyreactivity screen of Harvey et al. (2022)
